Test results reported in IntAct's records for PubMed 22396542.

B1: Ceramide transfer protein (Homo sapiens), Q9Y5P4-2 (parent)
chain: MSDNQSWNSSGSEEDPETESGPPVERCGVLSKWTNYIHGWQDRWVVLKNNALSYYKSEDETEYGCRGSICLSKAVITPHDFDECRFDISVNDSVWYLRAQDPDHRQQWIDAIEQHKTESGYGSESSLRRHGSMVSLVSGASGYSATSTSSFKKGHSLREKLAEMETFRDILCRQVDTLQKYFDACADAVSKDELQRDKVVEDDEDDFPTTRSDGDFLHSTNGNKEKLFPHVTPKGINGIDFKGEAITFKATTAGILATLSHCIELMVKREDSWQKRLDKETEKKRRTEEAYKNAMTELKKKSHFGGPDYEEGPNSLINEEEFFDAVEAALDRQDKIEEQSQSEKVRLHWPTSLPSGDAFSSVGTHRFVQKVEEMVQNHMTYSLQDVGGDANWQLVVEEGEMKVYRREVEENGIVLDPLKATHAVKGVTGHEVCNYFWNVDVRNDWETTIENFHVVETLADNAIIIYQTHKRVWPASQRDVLYLSVIRKIPALTENDPETWIVCNFSVDHDSAPLNNRCVRAKINVAMICQTLVSPPEGNQEISRDNILCKITYVANVNPGGWAPASVLRAVAKREYPKFLKRFTSYVQEKTAGKPILF

Variants of: B1
Conditions: with samp_human APCS

Variant | effect of a mutation on the interaction
P474G;A475Q | disrupting interaction strength
N434A;Y435A | with no effect
I413A;W562A | decreasing interaction strength
V472A;W473A | with no effect
Y435A;F436A | decreasing interaction strength

Variants of: B1
Conditions: with samp_human APCS
Remark: another data set of the same source

Variant | effect of a mutation on the interaction
N434A;Y435A | decreasing interaction strength
